Measurements reported in patent US20230192896A1 (published 2023).
Residue numbers refer to the chain shown, from its start.

T1: FX zymogen (UniProt P00742 41-179; P00742 183-488)
T1 chain 1: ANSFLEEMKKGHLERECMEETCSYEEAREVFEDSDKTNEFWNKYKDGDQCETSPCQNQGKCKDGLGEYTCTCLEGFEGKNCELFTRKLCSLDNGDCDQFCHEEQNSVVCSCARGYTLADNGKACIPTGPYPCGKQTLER
T1 chain 2: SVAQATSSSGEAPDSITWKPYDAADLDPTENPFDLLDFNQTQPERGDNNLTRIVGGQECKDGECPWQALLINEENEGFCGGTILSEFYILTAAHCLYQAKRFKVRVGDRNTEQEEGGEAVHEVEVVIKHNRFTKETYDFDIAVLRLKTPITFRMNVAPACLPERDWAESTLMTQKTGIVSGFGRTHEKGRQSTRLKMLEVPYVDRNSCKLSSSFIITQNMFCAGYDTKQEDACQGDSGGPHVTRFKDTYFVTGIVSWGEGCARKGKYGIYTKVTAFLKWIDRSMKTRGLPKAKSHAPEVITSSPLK

B1: BIIB-12-1306 (antibody, V domains shown)
VH: QVQLQESGPGLVKPSQTLSLTCTVSGGSISSGGYYWSWIRQHPGKGLEWIGSIYYSGSTYYNPSLKSRVTISVDTSKNQFSLKLSSVTAADTAVYYCARGAGGSAPWGQGTLVTVSS
VL: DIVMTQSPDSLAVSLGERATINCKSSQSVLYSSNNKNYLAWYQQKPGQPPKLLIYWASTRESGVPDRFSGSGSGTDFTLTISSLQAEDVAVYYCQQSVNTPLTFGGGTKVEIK
B2: BIIB-12-1315 (antibody, V domains shown)
VH: QVQLVQSGAEVKKPGASVKVSCKASGYTFTSYYMVWVRQAPGQGLEWMGIINPSGGSTSYAQKFQGRVTMTRDTSTSTVYMELSSLRSEDTAVYYCARGRPSSKRVTYFDYWGQGTLVTVSS
VL: EIVMTQSPATLSVSPGERATLSCRASQSVSSNLAWYQQKPGQAPRLLIYGASTRATGIPARFSGSGSGTEFTLTISSLQSEDFAVYYCQQVFNWPPWTFGGGTKVEIK
B3: BIIB-12-1295 (antibody, V domains shown)
VH: QVQLVQSGAEVKKPGASVKVSCKASGYTFTSYYMVWVRQAPGQGLEWMGIINPSGGSTSYAQKFQGRVTMTRDTSTSTVYMELSSLRSEDTAVYYCARVGGATTGKIGYGMDVWGQGTTVTVSS
VL: DIQMTQSPSSVSASVGDRVTITCRASQGISSWLAWYQQKPGKAPKLLIYAASNLQSGVPSRFSGSGSGTDFTLTISSLQPEDFATYYCQQAISLPITFGGGTKVEIK
B4: BIIB-12-1293 (antibody, V domains shown)
VH: QVQLVQSGAEVKKPGASVKVSCKASGYTFTSYYMHWVRQAPGQGLEWMGIINPSGGSTSYAQKFQGRVTMTRDTSTSTVYMELSSLRSEDTAVYYCARGSGGKHRGLDVWGQGTMVTVSS
VL: B3 VL with N53S, I92N, S93I, L94F, I96F
B5: BIIB-12-1298 (antibody, V domains shown)
VH: QVQLVESGGGVVQPGRSLRLSCAASGFTFSSYGMHWVRQAPGKGLEWVAVISYDGSNKYYADSVKGRFTISRDNSKNTLYLQMNSLRAEDTAVYYCAKGGSDRRVGSWGQGTLVTVSS
VL: B3 VL with N53S, A91T, I92N
B6: BIIB-12-1317 (antibody, V domains shown)
VH: QVQLVESGGGVVQPGRSLRLSCAASGFTFSSYGMHWVRQAPGKGLEWVAVISYDGSNKYYADSVKGRFTISRDNSKNTLYLQMNSLRAEDTAVYYCARGVGGHDTRWGQGTLVTVSS
VL: B3 VL with N53S, A91R, I92H, I96P
B7: BIIB-12-921 (antibody, V domains shown)
VH: QVQLVESGGGVVQPGRSLRLSCAASGFTFSSYGMHWVRQAPGKGLEWVAVISYDGSNKYYADSVKGRFTISRDNSKNTLYLQMNSLRAEDTAVYYCAKVGDRGTRAFDPWGQGTLVTVSS
VL: B3 VL with S31R, N53S, A91G, I92N, S93V, L94F, I96L
B8: BIIB-12-916 (antibody, V domains shown)
VH: QVQLVQSGAEVKKPGASVKVSCKASGYTFTSYYMHWVRQAPGQGLEWMGIINPSGGSTSYAQKFQGRVTMTRDTSTSTVYMELSSLRSEDTAVYYCARGGRQKATRRVDVWGQGTVVTVSS
VL: B3 VL with V11L, G28S, W32Y, A34N, N53S, A91L, I92A, S93I, L94T, I96F
B9: BIIB-12-1301 (antibody, V domains shown)
VH: QVQLVESGGGVVQPGRSLRLSCAASGFTFSSYGMHWVRQAPGKGLEWVAVISYDGSNKYYADSVKGRFTISRDNSKNTLYLQMNSLRAEDTAVYYCARTGNYGRGMPYWGQGTLVTVSS
VL: EIVLTQSPATLSLSPGERATLSCRASQSVSSYLAWYQQKPGQAPRLLIYDASKRATGIPARFSGSGSGTDFTLTISSLEPEDFAVYYCQQSSSWPPTFGGGTKVEIK
B10: BIIB-12-926 (antibody, V domains shown)
VH: B8 VH with G99D, Q102M, K103A, A104R, T105G, R106A, R107S, V108P, V110Y, V116L
VL: B9 VL with L4M, L13V, Y32N, D50G, K53T, D70E, E79Q, P80S, S91H, S93F
B11: BIIB-12-1318 (antibody, V domains shown)
VH: QVQLVESGGGVVQPGRSLRLSCAASGFTFSSYGMHWVRQAPGKGLEWVAVISYDGSNKYYADSVKGRFTISRDNSKNTLYLQMNSLRAEDTAVYYCARKGDYRSGSYSGRAFGIWGQGTMVTVSS
VL: B9 VL with K53N, S91L, S92N, S93N
B12: BIIB-12-1311 (antibody, V domains shown)
VH: QVQLVESGGGVVQPGRSLRLSCAASGFTFSSYGMHWVRQAPGKGLEWVAVISYDGSNKYYADSVKGRFTISRDNSKNTLYLQMNSLRAEDTAVYYCAKGRHYWAVWGQGTLVTVSS
VL: B9 VL with K53N, S91A, S93N, W94L
B13: BIIB-12-892 (antibody, V domains shown)
VH: QVQLVQSGAEVKKPGASVKVSCKASGYTFTSYYMHWVRQAPGQGLEWMGIINPSGGSTSYAQKFQGRVTMTRDTSTSTVYMELSSLRSEDTAVYYCARGLGRRTPTAFDIWGQGTMVTVSS
VL: B9 VL with K53N, S91R, S92L, S93N, W94L, P96L
B14: BIIB-12-1297 (antibody, V domains shown)
VH: QVQLVESGGGVVQPGRSLRLSCAASGFTFSSYGMHWVRQAPGKGLEWVAVISYDGSNKYYADSVKGRFTISRDNSKNTLYLQMNSLRAEDTAVYYCARSGGQTHRRSMDVWGQGTTVTVSS
VL: B9 VL with S31R, K53N, S91G, S92N, S93N
B15: BIIB-12-1292 (antibody, V domains shown)
VH: B13 VH with M34I, G99D, L100P, T104Q, P105S, T106S, A107G, I110Y, M116L
VL: B9 VL with L4M, A51S, K53N, S91R, S92L, S93N, W94F, P96F
B16: BIIB-12-1294 (antibody, V domains shown)
VH: QVQLVQSGAEVKKPGASVKVSCKASGYTFTSYYMHWVRQAPGQGLEWMGIINPSGGSTSYAQKFQGRVTMTRDTSTSTVYMELSSLRSEDTAVYYCARGTRSSRDMDVWGQGTTVTVSS
VL: DIQMTQSPSTLSASVGDRVTITCRASQSISSWLAWYQQKPGKAPKLLIYKASSLESGVPSRFSGSGSGTEFTLTISSLQPDDFATYYCQQVNTFPFTFGGGTKVEIK
B17: BIIB-12-929 (antibody, V domains shown)
VH: B16 VH with G99D, T100Q, R101G, S102Y, D105S, M106F, V108I, T114M
VL: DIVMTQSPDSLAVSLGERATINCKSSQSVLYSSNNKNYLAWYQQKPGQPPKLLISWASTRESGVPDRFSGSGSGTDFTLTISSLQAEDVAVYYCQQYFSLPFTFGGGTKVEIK
B18: BIIB-12-1325 (antibody, V domains shown)
VH: QVQLVQSGAEVKKPGASVKVSCKASGYTFTSYYMVWVRQAPGQGLEWMGIINPSGGSTSYAQKFQGRVTMTRDTSTSTVYMELSSLRSEDTAVYYCARGGRYMLDPWGQGTLVTVSS
VL: B16 VL with V91S, T93R, F94Y, F96R
B19: BIIB-12-1324 (antibody, V domains shown)
VH: B4 VH with H35V, G99L, S100P, G101R, G102Y, K103S, H104K
VL: EIVMTQSPATLSLSPGERATLSCRASQSVSSYLAWYQQKPGQAPRLLIYDSSNRATGIPARFSGSGSGTDFTLTISSLEPEDFAVYYCQQLVSWPTFGGGTKVEIK
B20: BIIB-12-904 (antibody, V domains shown)
VH: B5 VH with K98R, G100S, S101G, D102R, R103S, R104G, V105Y, G106H, S107Y
VL: EIVMTQSPATLSVSPGERATLSCRASQSVSSNLAWYQQKPGQAPRLLIYGASTRATGIPARFSGSGSGTEFTLTISSLQSEDFAVYYCQQAFNWPPTFGGGTKVEIK
B21: BIIB-12-917 (antibody, V domains shown)
VH: EVQLVQSGAEVKKPGESLKISCKGSGYSFTTYWIGWVRQMPGKGLEWMGIIYPGDSDTRYSPSFQGQVTISADKSISTAYLQWSSLKASDTAMYYCARGRFRPRGRFDYWGQGTLVTVSS
VL: B20 VL with A91L, W94H
B22: BIIB-12-936 (antibody, V domains shown)
VH: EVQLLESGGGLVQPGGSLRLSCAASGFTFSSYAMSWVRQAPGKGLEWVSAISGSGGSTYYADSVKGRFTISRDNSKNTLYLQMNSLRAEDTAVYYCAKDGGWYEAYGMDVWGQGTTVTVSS
VL: B20 VL with A91S, F92H, W94L
B23: BIIB-12-1319 (antibody, V domains shown)
VH: B5 VH with K98R, G99T, S101Y, D102H, R104S, G106Y, S107Y
VL: EIVMTQSPATLSVSPGERATLSCRASQSVSSNLAWYQQKPGQAPRLLIYGASTRATGIPARFSGSGSGTEFTLTISSLQSEDFAVYYCQQASNFPPTFGGGTKVEI
B24: BIIB-12-891 (antibody, V domains shown)
VH: B13 VH with M34I, G99A, L100S, G101I, R102Y, T104G, P105L, T106G
VL: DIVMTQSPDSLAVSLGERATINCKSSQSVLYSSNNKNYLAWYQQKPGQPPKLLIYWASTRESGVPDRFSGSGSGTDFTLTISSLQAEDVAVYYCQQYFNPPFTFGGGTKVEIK

Molecular target: T1, FX zymogen
Experiment: BLI

Kd | Binder
47 nM | B1
53.2 nM | B2
42.6 nM | B3
26 nM | B4
33.5 nM | B5
27.1 nM | B6
23.1 nM | B7
15.6 nM | B8
65 nM | B9
24 nM | B10
56.1 nM | B11
29 nM | B12
33.2 nM | B13
26.8 nM | B14
65.5 nM | B15
37.3 nM | B16
15.2 nM | B17
17.8 nM | B18
67.7 nM | B19
42.3 nM | B20
31.5 nM | B21
66 nM | B22
31 nM | B23
65.2 nM | B24
